These results are taken from publication PMC3299985 (Structure(London, England:1993), 2012).

The chains are these.
B4: Orc4 (subunit of the purified ORC) (natural protein, S. cerevisiae, UniProt P54791 1-529, looked up)
chain: MTISEARLSPQVNLLPIKRHSNEEVEETAAILKKRTIDNEKCKDSDPGFGSLQRRLLQQLYGTLPTDEKIIFTYLQDCQQEIDRIIKQSIIQKESHSVILVGPRQSYKTYLLDYELSLLQQSYKEQFITIRLNGFIHSEQTAINGIATQLEQQLQKIHGSEEKIDDTSLETISSGSLTEVFEKILLLLDSTTKTRNEDSGEVDRESITKITVVFIFDEIDTFAGPVRQTLLYNLFDMVEHSRVPVCIFGCTTKLNILEYLEKRVKSRFSQRVIYMPQIQNLDDMVDAVRNLLTVRSEISPWVSQWNETLEKELSDPRSNLNRHIRMNFETFRSLPTLKNSIIPLVATSKNFGSLCTAIKSCSFLDIYNKNQLSNNLTGRLQSLSDLELAILISAARVALRAKDGSFNFNLAYAEYEKMIKAINSRIPTVAPTTNVGTGQSTFSIDNTIKLWLKKDVKNVWENLVQLDFFTEKSAVGLRDNATAAFYASNYQFQGTMIPFDLRSYQMQIILQELRRIIPKSNMYYSWTQL

Experiment in all cases: cryo-EM structure
For assay [1], the target named is T1, Orc2 (subunit of the purified ORC) (S. cerevisiae, UniProt P32833 1-620).
T1 sequence (looked up): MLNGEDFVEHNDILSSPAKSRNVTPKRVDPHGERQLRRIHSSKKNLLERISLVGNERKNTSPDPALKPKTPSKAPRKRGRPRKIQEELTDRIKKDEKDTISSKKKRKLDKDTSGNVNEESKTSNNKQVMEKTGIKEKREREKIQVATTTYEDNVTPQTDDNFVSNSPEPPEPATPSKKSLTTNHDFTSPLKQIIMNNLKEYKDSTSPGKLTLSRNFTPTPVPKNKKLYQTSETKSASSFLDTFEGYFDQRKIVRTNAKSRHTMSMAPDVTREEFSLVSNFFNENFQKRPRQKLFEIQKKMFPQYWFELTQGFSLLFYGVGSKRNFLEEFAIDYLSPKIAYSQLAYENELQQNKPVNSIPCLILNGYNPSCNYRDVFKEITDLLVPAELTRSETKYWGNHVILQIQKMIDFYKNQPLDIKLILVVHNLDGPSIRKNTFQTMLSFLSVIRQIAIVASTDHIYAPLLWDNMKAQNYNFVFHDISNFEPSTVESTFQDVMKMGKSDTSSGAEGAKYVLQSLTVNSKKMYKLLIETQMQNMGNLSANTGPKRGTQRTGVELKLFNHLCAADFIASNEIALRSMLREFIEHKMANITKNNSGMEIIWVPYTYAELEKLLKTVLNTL

For assay [2], the target named is B4.
Assay [3] addresses T2, Orc1 (subunit of the purified ORC) (S. cerevisiae, UniProt P54784 1-914).
T2 sequence (looked up): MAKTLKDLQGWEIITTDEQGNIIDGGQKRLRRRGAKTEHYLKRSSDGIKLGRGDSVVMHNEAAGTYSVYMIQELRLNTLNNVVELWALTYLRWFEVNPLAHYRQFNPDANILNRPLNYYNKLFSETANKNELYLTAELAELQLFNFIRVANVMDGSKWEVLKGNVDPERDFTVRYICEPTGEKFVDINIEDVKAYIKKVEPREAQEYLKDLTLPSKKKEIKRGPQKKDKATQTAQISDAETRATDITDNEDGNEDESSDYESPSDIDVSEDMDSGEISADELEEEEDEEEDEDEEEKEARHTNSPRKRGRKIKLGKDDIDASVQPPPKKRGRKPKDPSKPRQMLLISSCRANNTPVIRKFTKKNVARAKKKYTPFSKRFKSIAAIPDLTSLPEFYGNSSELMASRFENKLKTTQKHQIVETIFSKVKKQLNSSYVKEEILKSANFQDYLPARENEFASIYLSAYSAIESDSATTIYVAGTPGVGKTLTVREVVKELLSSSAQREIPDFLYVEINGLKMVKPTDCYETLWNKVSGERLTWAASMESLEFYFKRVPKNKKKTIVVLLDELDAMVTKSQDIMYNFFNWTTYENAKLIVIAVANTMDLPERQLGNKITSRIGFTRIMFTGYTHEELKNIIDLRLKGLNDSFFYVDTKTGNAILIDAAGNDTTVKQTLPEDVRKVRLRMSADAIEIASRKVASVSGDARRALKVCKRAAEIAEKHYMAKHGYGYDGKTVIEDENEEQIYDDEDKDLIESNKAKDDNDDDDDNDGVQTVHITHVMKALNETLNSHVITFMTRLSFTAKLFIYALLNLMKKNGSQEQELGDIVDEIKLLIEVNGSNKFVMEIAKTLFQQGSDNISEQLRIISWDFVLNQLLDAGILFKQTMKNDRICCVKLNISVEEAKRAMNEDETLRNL

B1: Orc3 (subunit of the purified ORC) (natural protein, S. cerevisiae, UniProt P54790 1-616, looked up)
chain: MSDLNQSKKMNVSEFADAQRSHYTVYPSLPQSNKNDKHIPFVKLLSGKESEVNVEKRWELYHQLHSHFHDQVDHIIDNIEADLKAEISDLLYSETTQKRRCFNTIFLLGSDSTTKIELKDESSRYNVLIELTPKESPNVRMMLRRSMYKLYSAADAEEHPTIKYEDINDEDGDFTEQNNDVSYDLSLVENFKRLFGKDLAMVFNFKDVDSINFNTLDNFIILLKSAFKYDHVKISLIFNINTNLSNIEKNLRQSTIRLLKRNYHKLDVSSNKGFKYGNQIFQSFLDTVDGKLNLSDRFVEFILSKMANNTNHNLQLLTKMLDYSLMSYFFQNAFSVFIDPVNVDFLNDDYLKILSRCPTFMFFVEGLIKQHAPADEILSLLTNKNRGLEEFFVEFLVRENPINGHAKFVARFLEEELNITNFNLIELYHNLLIGKLDSYLDRWSACKEYKDRLHFEPIDTIFQELFTLDNRSGLLTQSIFPSYKSNIEDNLLSWEQVLPSLDKENYDTLSGDLDKIMAPVLGQLFKLYREANMTINIYDFYIAFRETLPKEEILNFIRKDPSNTKLLELAETPDAFDKVALILFMQAIFAFENMGLIKFQSTKSYDLVEKCVWRGI
Consider B1, for which the binding result in assay [1] was “binds”.

B2: Orc5 (subunit of the purified ORC) (natural protein, S. cerevisiae, UniProt P50874 1-479, looked up)
chain: MNVTTPEVAFREYQTNCLASYISADPDITPSNLILQGYSGTGKTYTLKKYFNANPNLHAVWLEPVELVSWKPLLQAIARTVQYKLKTLYPNIPTTDYDPLQVEEPFLLVKTLHNIFVQYESLQEKTCLFLILDGFDSLQDLDAALFNKYIKLNELLPKDSKINIKFIYTMLETSFLQRYSTHCIPTVMFPRYNVDEVSTILVMSRCGELMEDSCLRKRIIEEQITDCTDDQFQNVAANFIHLIVQAFHSYTGNDIFALNDLIDFKWPKYVSRITKENIFEPLALYKSAIKLFLSTDDNLSENGQGESAITTNRDDLENSQTYDLSIISKYLLIASYICSYLEPRYDASIFSRKTRIIQGRAAYGRRKKKEVNPRYLQPSLFAIERLLAIFQAIFPIQGKAESGSLSALREESLMKANIEVFQNLSELHTLKLIATTMNKNIDYLSPKVRWKVNVPWEIIKEISESVHFNISDYFSDIHE
For B2, the binding result in assay [1] and in assay [2] was “binds” each time.

B3: S. cerevisiae Cdc6 (natural protein, UniProt P09119 1-513, looked up)
chain: MSAIPITPTKRIRRNLFDDAPATPPRPLKRKKLQFTDVTPESSPEKLQFGSQSIFLRTKALLQKSSELVNLNSSDGALPARTAEYEQVMNFLAKAISEHRSDSLYITGPPGTGKTAQLDMIIRQKFQSLPLSLSTPRSKDVLRHTNPNLQNLSWFELPDGRLESVAVTSINCISLGEPSSIFQKIFDSFQDLNGPTLQIKNMQHLQKFLEPYHKKTTFVVVLDEMDRLLHANTSETQSVRTILELFLLAKLPTVSFVLIGMANSLDMKDRFLSRLNLDRGLLPQTIVFQPYTAEQMYEIVIQKMSSLPTIIFQPMAIKFAAKKCAGNTGDLRKLFDVLRGSIEIYELEKRFLLSPTRGSLNSAQVPLTPTTSPVKKSYPEPQGKIGLNYIAKVFSKFVNNNSTRTRIAKLNIQQKLILCTIIQSLKLNSDATIDESFDHYIKAITKTDTLAPLQRNEFLEICTILETCGLVSIKKTKCKGKTKRFVDKIDVDLDMREFYDEMTKISILKPFLH
On to B3, for which, in assay [3], the binding result is recorded as “binds”.

With B4, in assay [3], the binding result is listed as “binds”.

B5: Orc6 (subunit of the purified ORC) (natural protein, S. cerevisiae, UniProt P38826 1-435, looked up)
chain: MSMQQVQHCVAEVLRLDPQEKPDWSSGYLKKLTNATSILYNTSLNKVMLKQDEEVARCHICAYIASQKMNEKHMPDLCYYIDSIPLEPKKAKHLMNLFRQSLSNSSPMKQFAWTPSPKKNKRSPVKNGGRFTSSDPKELRNQLFGTPTKVRKSQNNDSFVIPELPPMQTNESPSITRRKLAFEEDEDEDEEEPGNDGLSLKSHSNKSITGTRNVDSDEYENHESDPTSEEEPLGVQESRSGRTKQNKAVGKPQSELKTAKALRKRGRIPNSLLVKKYCKMTTEEIIRLCNDFELPREVAYKIVDEYNINASRLVCPWQLVCGLVLNCTFIVFNERRRKDPRIDHFIVSKMCSLMLTSKVDDVIECVKLVKELIIGEKWFRDLQIRYDDFDGIRYDEIIFRKLGSMLQTTNILVTDDQYNIWKKRIEMDLALTEPL
Consider B5, for which the binding result in assay [1] was “binds”.
